Among the data in the supplement of paper PMC12042874 are amyloid nucleation score values, retold here.

± gives the uncertainty stated by the source.

This data set in a line: amyloid nucleation score (Sup35N fusion, yeast selection) (log enrichment); library NNK1; higher = more nucleation; inactive = no reads after selection. In short, it runs like this:
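Nucleation score: DiMSum log enrichment of output over input reads, centred on the mode score of non-aggregating sequences. Only sequences with at least 100 input reads were kept. Reads came from Illumina sequencing of plasmid inserts before and after 7 days of growth at 30°C without adenine and uracil, in psi-negative yeast expressing Sup35N fused to peptides of 20 random codons after 24 hours of induction with 100 μM copper sulfate.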

As for MSSVNWYANDLLSVLGIGSR, the amyloid nucleation score is -0.202 ± 1.2.
DSTSDMLHLIIRTMISLISR: the amyloid nucleation score was -0.257 ± 0.35.
To LSSSGFWYWFT belongs -0.251 ± 0.32.
With NSRGT, the amyloid nucleation score is -0.28 ± 0.34.
Regarding NMGIKVLSKYNVIYYSAGTP, the amyloid nucleation score was 8.343 ± 0.048.
Consider RGAQARSQCCMVVMSVESRS, for which the amyloid nucleation score turned out to be 0.628 ± 0.46.
Regarding FRVQVTYIFRSLEICDPTVG, the amyloid nucleation score entry is “inactive”.
Regarding VKATLSFSQFLHVVSYWGF, the amyloid nucleation score was -0.342 ± 0.71.
Consider PLSILRKMAGVVSGCTAPTS, for which the amyloid nucleation score amounted to 0.663 ± 0.7.
TYRVVFVAGIHQFNFVPLVR returned an amyloid nucleation score of 0.009 ± 1.1.
The substance YNDMVICSTTDGTLSYCRHF had an amyloid nucleation score of 0.329 ± 0.26.
With TSTLVMTNKMVLDSVE, the amyloid nucleation score was -0.543 ± 0.25.
AGLKV: the amyloid nucleation score is -0.479 ± 0.4.
Under HFCKYSQNIELRQALGCYFW stands 6.16 ± 0.065.
QFYHLYCHKIYCFRGEFRRR: the amyloid nucleation score turned out to be 1.83 ± 0.46.
On to PILKQNHWRDFGNCLAKRRE, for which the amyloid nucleation score was -0.281 ± 0.82.
As for SEWDFGDCENFKVSYLVVTQ, the amyloid nucleation score is -0.408 ± 0.4.
Under SHLCTMIGTCFL stands 1.98 ± 0.13; under LRLTALGSSRPIKFEGNVGY, -0.532 ± 0.68.
With GLRATVYITLRFE, the amyloid nucleation score was -0.442 ± 0.43.
Regarding FMDMDRLMSRGLQVNKGVML, the amyloid nucleation score is -0.228 ± 0.68.
INGMEYLEQKIEVL yielded an amyloid nucleation score of 0.091 ± 0.42.
Take LFSRFCTTVCKSTFRFDTR: the amyloid nucleation score was determined as 1.65 ± 0.76.
To CYMKNKLSFIM belongs “inactive”; to DLRFCNASYVLWISDFAHAV, -0.08 ± 0.41.
In the case of FNSFCFQNVTLW, the amyloid nucleation score entry is “inactive”.
In turn, SNFSYMSCLLGYLPLILFAA came in with an amyloid nucleation score of 0.014 ± 0.21.
To VWLRIM belongs -0.957 ± 2.4; to GVSQNKCMPVWCVR, 0.504 ± 0.38.
Consider RKNTDVTENEYRWAIF, for which the amyloid nucleation score is -0.522 ± 1.9.
Regarding DLFFIG, the amyloid nucleation score worked out at 0.188 ± 0.38.
The substance CNKNNCWCYHCSYQVWHALY had an amyloid nucleation score of 0.381 ± 0.42.
Turning to LFILPCQVNLHECMVLCLFE, the amyloid nucleation score is 5.91 ± 0.06.
Regarding RWSAFSVYAWGAYKLRC, the amyloid nucleation score turned out to be 2.41 ± 0.11.
WFSVDFNNHLWFQNSYSMWG had an amyloid nucleation score of 0.156 ± 0.43.
To FDIMNDIK belongs 0.658 ± 0.52.
With YVSAVGLWVVLYYMMRMCAS, the amyloid nucleation score result is “inactive”.
To SPWSSNRYVLNSFYLSHPRR belongs -0.308 ± 0.32; to FVLFRLFEFASNIRVTFFF, -0.833 ± 0.62; to PRTTMMAINQVLTGTLEASW, -1.01 ± 0.95.
Regarding YWKMRCM, the amyloid nucleation score amounted to 3.47 ± 0.19.
In the case of NFDNYVLLPLALTC, the amyloid nucleation score result is “inactive”.
For the substance MSQAALLVLGNRFGNNDIVG, the amyloid nucleation score is -0.078 ± 0.44.
Under YCIYVGFDLMCLSVWNGHRS stands -1.39 ± 0.66; under CTSDHSSFAKFLLLTCCLLL, 0.841 ± 0.92.
To GMPGHFLLLKLGYFANRTNR belongs -1.25 ± 1.1.
Turning to VYYLGVKAFLFNSSF, the amyloid nucleation score is 0.824 ± 0.54.
Consider VRACSCMDCDTVYRNVLSMG, for which the amyloid nucleation score is -1.79 ± 2.4.
On to ISGFMLQVLTRRYSWMSA, for which the amyloid nucleation score is -0.498 ± 0.88.
The substance CALVYGWTEHDV gave an amyloid nucleation score of 1.44 ± 0.64.
To YIVPQLT belongs 1.47 ± 0.81; to FSNAIKQVFQGYLWTNPW, -0.188 ± 0.3.
Turning to PCSVVV, the amyloid nucleation score was -0.246 ± 0.32.
Under CNLNAGGKRWADRT stands 0.3 ± 0.85.
Take SCNFLYGRRLFL: the amyloid nucleation score is -0.127 ± 0.55.
ETFPYMRMYARALSRT displayed an amyloid nucleation score of 0.369 ± 0.39.
On to SELRSWFL, for which the amyloid nucleation score was -0.109 ± 1.2.
Consider VHKAGDFNVTAFVNSNVFVS, for which the amyloid nucleation score result is “inactive”.
To KKALTALM belongs 0.822 ± 0.98.
To SMYVPCRFSTDSTMLPNELK belongs -0.19 ± 0.66; to FMYSKPVI, -0.314 ± 0.78.
Take ENVYGWVG: the amyloid nucleation score was 1.09 ± 0.15.
To DMEQAICEPSLFKIVGDNNL belongs -0.186 ± 0.86.
LCIMF: the amyloid nucleation score was -0.446 ± 0.69.
Turning to QGAGAGKITVGTVGVGGTEL, the amyloid nucleation score result was “inactive”.
To AEAISSYHGWSYYLHHTPFS belongs 0.654 ± 1.2.
To FYSCIYYGHMLVELPDMLEL belongs -0.056 ± 0.35; to NKYNSYKKNYPKRIDWSGLN, -0.983 ± 1.4.
Regarding VYRNASLCVSEVL, the amyloid nucleation score is 0.211 ± 0.97.
On to ESSGTFFP, for which the amyloid nucleation score was -0.186 ± 0.9.
For the substance VSNVRNSCLHLSARLYSTDL, the amyloid nucleation score is -0.702 ± 0.91.
As to AMFNIW, the amyloid nucleation score was -0.328 ± 0.47.
The substance CVFMRATLQK gave an amyloid nucleation score of 3.25 ± 0.15.
Take RTNSSSVCSILKGLSQ: the amyloid nucleation score was -0.535 ± 1.1.
As to VVGYRRTMGLVEFSLASVSN, the amyloid nucleation score was -0.806 ± 0.76.
In turn, MLVAFAYFFGSHVRHWGFVW registered an amyloid nucleation score of 0.224 ± 0.33.
Under KRDLPTQTTDNLACSWAPTQ stands -0.884 ± 2.4; under SLKFRLYSPNAMALNPKALF, 0.581 ± 0.21.
Turning to VEKRKTFRLGAFGEVRVICS, the amyloid nucleation score is 0.461 ± 0.99.
For RDMRLLAFRLPIRRFTRGST, the amyloid nucleation score is -0.097 ± 0.44.
Consider VHRDFGSENYSTLEVCNSLT, for which the amyloid nucleation score worked out at 1.16 ± 0.84.
With KNLKW, the amyloid nucleation score worked out at 0.476 ± 0.97.
Consider RVFRASNDR, for which the amyloid nucleation score was 0.241 ± 1.1.
Regarding SKSGGHASSNG, the amyloid nucleation score turned out to be 0.649 ± 0.85.
On to LWRLANWRM, for which the amyloid nucleation score was -0.46 ± 0.27.
For the substance VIFYTFMVRTITACCLKLWV, the amyloid nucleation score result was “inactive”.
To FVAVNILDMMKAYKLFENLF belongs -0.256 ± 0.22.
Substance CTAYYMLGGGRNLNHPLMWV returned an amyloid nucleation score of 0.497 ± 0.61.
As for WSCCAEERVTWGPAEMLLWG, the amyloid nucleation score was -1.05 ± 2.7.
Turning to ISLRYFPNYISFHKLGFRSA, the amyloid nucleation score turned out to be 0.523 ± 0.39.
Under FWCISVRVNYNGYYVYF stands 1.2 ± 0.26; under LMFSDGWFLNGEISPWVGF, -0.393 ± 0.71.
For SRYLDIEVLSHGMNWMTFQT, the amyloid nucleation score was -0.005 ± 0.77.
To LVDSPCQRSYTRRPHTHWR belongs 0.15 ± 0.34; to TWSRNIINFRIFWYTLFQVH, 0.005 ± 0.29; to ESHMRNHR, 0.312 ± 0.37.
